Measured values published in US20040018971A1 (published 2004).

Columns and labels:
HLA-A*1101 [1] = biological target: HLA-A*1101 (human); test: competition with 125I-labelled probe peptide for purified HLA-A*1101, gel filtration; standard peptide 940.06 [..] (6.0 nM)
HLA-A*1101 [2] = biological target: HLA-A*1101 (human); test: competition with 125I-labelled probe peptide on purified HLA-A*1101, relative to standard peptide 940.06
[3] = biological target: T1, HLA-A*0201 (purified HLA class I molecule) (human); test: competition with 125I-labelled standard peptide for purified HLA, gel filtration
T1 construct: also called HLA-A2.1

HLA-A*0101 = biological target: T2, HLA-A*0101 (human); test: competition with 125I-labelled probe peptide for purified HLA-A*0101, gel filtration; ratio = IC50 of standard peptide 944.02 / IC50 of test peptide
T2 construct: also called HLA-A1

HLA-B*0702 = HLA-B*0702 (human); test: competition vs 125I-labelled probe peptide, purified HLA, gel filtration
HLA-B*5101 = HLA-B*5101 (human); test: as above
HLA-B*5401 = HLA-B*5401 (human); test: as above
HLA-A*0301 = biological target: T3, HLA-A*0301 (human); test: inhibition of 125I-labelled probe peptide binding to purified HLA-A*0301, gel filtration; ratio to standard peptide 941.12 ([..], 11 nM)
T3 construct: also called HLA-A3

With KVLRENTSPK [HER2/neu peptide, position 753, 10 amino acids] the relative binding ratio (HLA-A*1101 [1]) was 0.22 ratio (IC50 of standard peptide / IC50 of test peptide).

With SVFQNLQVIR (Synthetic peptide) [HER2/neu peptide, position 423, 10 amino acids] the relative binding ratio (HLA-A*1101 [2]) was 0.075 ratio (IC50 of standard peptide / IC50 of test peptide).

B1: HER2/neu peptide, position 90, 10 amino acids (peptide)
peptide: QVRQVPLQRL
notes: Synthetic peptide; also called HER2/neu 90-99
With B1 the “relative binding ratio (IC50 of standard peptide / IC50 of test peptide)” value [3] was 0.0001 ratio.

With LIKRRQQKIR [HER2/neu peptide, position 674, 10 amino acids] the relative binding ratio (HLA-A*1101 [1]) was 0.0001 ratio (IC50 of standard peptide / IC50 of test peptide).

With TLIDTNRSR (Synthetic peptide) [HER2/neu peptide, position 182, 9 amino acids] the relative binding ratio (HLA-A*1101 [2]) was 0.0005 ratio (IC50 of standard peptide / IC50 of test peptide).

With KIRKYTMR [HER2/neu peptide, position 681, 8 amino acids] the relative binding ratio (HLA-A*1101 [1]) was 0.0004 ratio (IC50 of standard peptide / IC50 of test peptide).

In the case of VLQGLPREY (Synthetic peptide), the relative binding ratio (HLA-A*1101 [2]) is reported as 0.0002 ratio (IC50 of standard peptide / IC50 of test peptide).

For QVPLQRLRIV (Synthetic peptide) [HER2/neu peptide, position 93, 10 amino acids], the “relative binding ratio (IC50 of standard peptide / IC50 of test peptide)” value [3] was 0.0001 ratio.

TVPWDQLFR (Synthetic peptide) [HER2/neu peptide, position 479, 9 amino acids] was tested, and the relative binding ratio (HLA-A*1101 [2]) was 0.0072 ratio (IC50 of standard peptide / IC50 of test peptide).

In the case of RILKETELR (Synthetic peptide) [HER2/neu peptide, position 713, 9 amino acids], the relative binding ratio (HLA-A*1101 [2]) is reported as 0.0038 ratio (IC50 of standard peptide / IC50 of test peptide).

B2: HER2/neu peptide, position 402, 10 amino acids (peptide)
peptide: TLEEITGYLY
notes: Synthetic peptide; also called Her2/neu.402
In the case of B2, the relative binding ratio (HLA-A*1101 [2]) is reported as 0.0001 ratio (IC50 of standard peptide / IC50 of test peptide).

For QLRSLTEIL (Synthetic peptide) [HER2/neu peptide, position 141, 9 amino acids], the “relative binding ratio (IC50 of standard peptide / IC50 of test peptide)” value [3] was 0.0008 ratio.

B3: HER2/neu peptide, position 166, 10 amino acids (peptide)
peptide: TILWKDIFHK
notes: Synthetic peptide; also called Her2/neu.166
In the case of B3, the relative binding ratio (HLA-A*1101 [2]) is reported as 3.6 ratio (IC50 of standard peptide / IC50 of test peptide).

In the case of SMPNPEGRY (Synthetic peptide) [HER2/neu peptide, position 281, 9 amino acids], the relative binding ratio (HLA-A*1101 [2]) is reported as 0.0003 ratio (IC50 of standard peptide / IC50 of test peptide).

In the case of VARCPSGVK (Synthetic peptide) [HER2/neu peptide, position 597, 9 amino acids], the relative binding ratio (HLA-A*1101 [2]) is reported as -0.0002 ratio (IC50 of standard peptide / IC50 of test peptide).

Binder PTAENPEY [HER2/neu peptide, position 1241, 8 amino acids] has a relative binding ratio (HLA-A*0101) of 0.003 ratio.

B4: HER2/neu peptide, position 296, 8 amino acids (peptide)
peptide: VTACPYNY
notes: Synthetic peptide; also called Her2/neu.296
B4 gave a relative binding ratio (HLA-A*0101) of 0.1 ratio.

VLQGLPREY showed a relative binding ratio (HLA-A*0101) of 0.005 ratio.

B5: HER2/neu peptide, position 999, 10 amino acids (peptide)
peptide: PLDSTFYRSL
notes: Synthetic peptide; also called HER2/neu 999-1008
In the case of B5, the “relative binding ratio (IC50 of standard peptide / IC50 of test peptide)” value [3] is reported as 0.0001 ratio.

B6: Her2/neu.1174.F1I8 (peptide)
peptide: FPGKNGVI
notes: 8-mer analog of the HER2/neu peptide starting at position 1174
B6 showed an IC50 (HLA-B*0702) of 458 nM, an IC50 (HLA-B*5101) of 177 nM and an IC50 (HLA-B*5401) of 385 nM.

ILIKRRQQK [HER2/neu peptide, position 673, 9 amino acids] was tested, and the relative binding ratio (HLA-A*1101 [1]) was 0.0097 ratio (IC50 of standard peptide / IC50 of test peptide).

With RILKETELRK (Synthetic peptide) [HER2/neu peptide, position 713, 10 amino acids] the relative binding ratio (HLA-A*1101 [2]) was 0.11 ratio (IC50 of standard peptide / IC50 of test peptide).

B7: HER2/neu peptide, position 160, 9 amino acids (peptide)
peptide: QLCYQDTIL
notes: Synthetic peptide; also called HER2/neu 160-168
With B7 the “relative binding ratio (IC50 of standard peptide / IC50 of test peptide)” value [3] was 0.0001 ratio.

B8: HER2/neu peptide, position 484, 9 amino acids (peptide)
peptide: QLFRNPHQA
notes: Synthetic peptide; also called HER2/neu 484-492
B8 was tested, and the “relative binding ratio (IC50 of standard peptide / IC50 of test peptide)” value [3] was 0.0062 ratio.

Work on QIAKGMSY [HER2/neu peptide, position 828, 8 amino acids] yielded a relative binding ratio (HLA-A*0101) of -0.0021 ratio.

For LGSGAFGTVY [HER2/neu peptide, position 726, 10 amino acids], the relative binding ratio (HLA-A*1101 [1]) was 0.0003 ratio (IC50 of standard peptide / IC50 of test peptide).

In the case of MTFGAKPY [HER2/neu peptide, position 916, 8 amino acids], the relative binding ratio (HLA-A*0101) is reported as -0.0021 ratio.

B9: HER2/neu peptide, position 24, 10 amino acids (peptide)
peptide: QVCTGTDMKL
notes: Synthetic peptide; also called HER2/neu 24-33
In the case of B9, the “relative binding ratio (IC50 of standard peptide / IC50 of test peptide)” value [3] is reported as 0.0001 ratio.

In the case of LALTLIDTNR [HER2/neu peptide, position 179, 10 amino acids], the relative binding ratio (HLA-A*1101 [1]) is reported as 0.0003 ratio (IC50 of standard peptide / IC50 of test peptide).

In the case of GVVFGILIK [HER2/neu peptide, position 668, 9 amino acids], the “relative binding ratio (IC50 of standard peptide / IC50 of test peptide)” value (HLA-A*0301) is reported as 0.0047.

LACHQLCAR [HER2/neu peptide, position 509, 9 amino acids] was tested, and the relative binding ratio (HLA-A*1101 [1]) was 0.0003 ratio (IC50 of standard peptide / IC50 of test peptide).

With RLVHRDLAAR (Synthetic peptide) [HER2/neu peptide, position 840, 10 amino acids] the relative binding ratio (HLA-A*1101 [2]) was 0.0001 ratio (IC50 of standard peptide / IC50 of test peptide).

HLDMLRHLY (also called Her2/neu.42) [HER2/neu peptide, position 42, 9 amino acids] was tested, and the relative binding ratio (HLA-A*1101 [1]) was 0.0002 ratio (IC50 of standard peptide / IC50 of test peptide).
